Patent US20110294728A1, “Antiviral Polypeptides” (priority 2008, published 2011)
Where no end group is shown, it is not given here.

Tests used:
[1] = molecular target: T1, HIV-1 reverse transcriptase, heterodimeric p66/p51 (HIV-1), P03366; assay: RT polymerase inhibition assay, Ki from Dixon plot
[2] = molecular target: T1, HIV-1 reverse transcriptase, …; assay: RT polymerase inhibition assay, Ki
HIV-1 integrase (HIV-1) [3] = assay: IN 3′ processing inhibition, fluorescence anisotropy
[4] = molecular target: T1, HIV-1 reverse transcriptase, …; assay: RT polymerase inhibition assay
HIV-1 integrase (HIV-1) [5] = assay: steady state fluorescence and anisotropy
HIV-1 integrase (HIV-1) [6] = assay: cell-based or functional assay
HIV-1 integrase (HIV-1) [7] = assay: dissociation of the IN/LEDGF complex, AlphaScreen and immunoprecipitation; partner displaced: LEDGF
[8] = molecular target: HA-tagged Integrase (stably expressed in HeLa cells) (HIV-1); assay: cell-based or functional assay
[9] = molecular target: T2, RT:p/t (HIV-1 RT heterodimer pre-bound to DNA/DNA primer/template) (HIV-1), P03366; assay: steady-state fluorescence titration, 20 nM RT:FAM-p/t titrated with PAW
[10] = molecular target: T2, RT:p/t (HIV-1 RT heterodimer pre-bound …); assay: steady-state fluorescence titration, 200 nM FITC-PAW titrated with RT:p/t
[11] = molecular target: T2, RT:p/t (HIV-1 RT heterodimer pre-bound …); assay: steady-state fluorescence titration
HIV-1 integrase (HIV-1) [12] = assay: steady-state fluorescence anisotropy, fluorescein-labelled peptide titrated with IN
[13] = molecular target: T1, HIV-1 reverse transcriptase, …; assay: steady-state fluorescence titration, 200 nM FITC-PAW titrated with RT

In the case of GTKAWTEVWPL (modifications not checked) [P17], the Ki [1] is reported as 35 µM and the fold reduction in efficiency against PAW [2] is reported as 50 fold.

With CGTKWLTEWIPLTAEC (modifications not checked) [P27C1] the Ki (HIV-1 integrase (HIV-1) [3]) was > 100 µM and the Ki [4] was 0.042 µM.

Binder GTKWLTEVWPL (modifications not checked) [P16] has a Kd (HIV-1 integrase (HIV-1) [5]) of 0.12 µM, an EC50 (µM) 3′processing (HIV-1 integrase (HIV-1) [6]) of 10 µM and an EC50 (µM) IN/DNA binding (HIV-1 integrase (HIV-1) [6]) of 8 µM. The EC50 (µM) IN/DNA dissociation (HIV-1 integrase (HIV-1) [6]) was 11 µM, the Ki (HIV-1 integrase (HIV-1) [3]) was 10 µM and the Ki [1] was 14 µM. The Ki [4] was 14.4 µM, the EC50 (HIV-1 integrase (HIV-1) [7]) was 0.8 µM and the fold reduction in efficiency against PAW [2] was 20 fold.

RGTKALTEVIPLTEEAE (modifications not checked) [Pep-A] showed a Ki [1] of 35 µM.

In the case of GTKWLTEWIPLTAE (modifications not checked) [P27], the Kd (HIV-1 integrase (HIV-1) [5]) is reported as > 100 µM, the EC50 (µM) 3′processing (HIV-1 integrase (HIV-1) [6]) is reported as > 100 µM and the EC50 (µM) IN/DNA binding (HIV-1 integrase (HIV-1) [6]) is reported as > 100 µM. For the same binder, the EC50 (µM) IN/DNA dissociation (HIV-1 integrase (HIV-1) [6]) was > 100 µM, the Ki (HIV-1 integrase (HIV-1) [3]) was > 100 µM and the Ki [1] was 0.05 µM. It also gave a Ki [4] of 0.05 µM and a fold increase in efficiency against PAW [2] of 14 fold.

In the case of CGTKWLTEVWPLC (modifications not checked) [P16C1], the Kd (HIV-1 integrase (HIV-1) [5]) is reported as 0.09 µM, the Ki (HIV-1 integrase (HIV-1) [3]) is reported as 4.3 µM and the Ki [4] is reported as 32.1 µM.

In the case of GTKALTEAIPLTEEAE (modifications not checked) [P9], the Ki [1] is reported as 15 µM and the fold reduction in potency against P1 [2] is reported as 2 fold.

GAKTETLVIPETELEA (modifications not checked) [Pscramble] gave a Ki [1] of 61 µM.

In the case of GTKALTEVIPLT (modifications not checked) [P18], the Ki [1] is reported as 53 µM.

GCKWLTEWIPLTAEAEC (modifications not checked) [PAW-C2] gave a Kd (HIV-1 integrase (HIV-1) [5]) of 0.12 µM, a Ki (HIV-1 integrase (HIV-1) [3]) of 8 µM and a Ki [4] of 1.4 µM.

For GTKALTEVIPLAEEAE (modifications not checked) [P13], the Ki [1] was 10.2 µM.

KWLTEWIPLTAEAE (modifications not checked) [P26] showed a Kd (HIV-1 integrase (HIV-1) [5]) of 0.32 µM, an EC50 (µM) 3′processing (HIV-1 integrase (HIV-1) [6]) of 28 µM and an EC50 (µM) IN/DNA binding (HIV-1 integrase (HIV-1) [6]) of 54 µM. The EC50 (µM) IN/DNA dissociation (HIV-1 integrase (HIV-1) [6]) was 67 µM, the Ki [1] was 1.8 µM and the EC50 (HIV-1 integrase (HIV-1) [7]) was > 50 µM. For the same binder, the fold reduction in efficiency against PAW [2] was 2.5 fold.

GTKALAEVIPLTEEAE (modifications not checked) [P7] was tested, and the Ki [1] was 13.5 µM and the fold reduction in potency against P1 [2] was 2 fold.

For GTKWLTEWIPL (modifications not checked) [P24], the Kd (HIV-1 integrase (HIV-1) [5]) was 0.35 µM, the EC50 (µM) 3′processing (HIV-1 integrase (HIV-1) [6]) was 33 µM and the EC50 (µM) IN/DNA binding (HIV-1 integrase (HIV-1) [6]) was 35 µM. It also gave an EC50 (µM) IN/DNA dissociation (HIV-1 integrase (HIV-1) [6]) of 21 µM, a Ki [1] of 0.7 µM and an EC50 (HIV-1 integrase (HIV-1) [7]) of 13 µM.

GTKWATEWAPLTAEAE (modifications not checked) [P28] was tested, and the Ki [1] was 2 µM.

GTKWLTEWIPLTAEAE (modifications not checked) [PAW] was tested, and the Kd (HIV-1 integrase (HIV-1) [5]) was 0.23 µM, the IN half-life (cycloheximide treatment, 1 µM PAW) [8] was 17 min and the integrase located in the nucleus (High Content Screening, HeLa cells) [8] was 35%. For the same binder, the EC50 (µM) 3′processing (HIV-1 integrase (HIV-1) [6]) was 12 µM, the EC50 (µM) IN/DNA binding (HIV-1 integrase (HIV-1) [6]) was 10 µM and the EC50 (µM) IN/DNA dissociation (HIV-1 integrase (HIV-1) [6]) was 15 µM. For the same binder, the IC50 3′-proc (HIV-1 integrase (HIV-1) [6]) was 12.7 µM, the Ki (HIV-1 integrase (HIV-1) [3]) was 12 µM and the Ki [1] was 0.7 µM. The Ki [4] was 0.7 µM, the Kd [9] was 0.04 µM and the quenching of fluorescence of FAM-labelled p/t [9] was 39%. It also gave an EC50 (HIV-1 integrase (HIV-1) [7]) of 2 µM, a fold improvement in efficiency over P6 [2] of 10 fold and a fold improvement in efficiency over Pep-A [2] of 50 fold.

GTKALTAVIPLTEEAE (modifications not checked) [P8] gave a Ki [1] of 57 µM and a fold reduction in efficiency against P1 [2] of 8 fold.

In the case of CGTKWLTEWIPLTAEAEC (modifications not checked) [PAW-C1], the Kd (HIV-1 integrase (HIV-1) [5]) is reported as 0.29 µM, the Ki (HIV-1 integrase (HIV-1) [3]) is reported as 21 µM and the Ki [4] is reported as 0.2 µM.

Work on GTAALTEVIPLTEEAE (modifications not checked) [P4] yielded a Ki [1] of 15 µM and a fold reduction in potency against P1 [2] of 2 fold.

KWLTEWIPLTAE (modifications not checked) [P29] was tested, and the Ki [1] was 1 µM.

With GTKALTEVIPLTEEAE (modifications not checked) [P1] the Ki [1] was 7.5 µM and the fold increase in potency against Pep-A [2] was 5 fold.

For GTKALTEVIPATEEAE (modifications not checked) [P12], the Ki [1] was 22 µM.

Work on GTKAATEVIPLT (modifications not checked) [P19] yielded a Ki [1] of 49 µM.

Work on GTKAATEVIPLTEEAE (modifications not checked) [P6] yielded a Ki [1] of 5.7 µM.

ATKALTEVIPLTEEAE (modifications not checked) [P2] gave a Ki [1] of 28 µM.

GTKGLTEVIPLTEEAE (modifications not checked) [P5] showed a Ki [1] of 20 µM and a fold reduction in potency against P1 [2] of 2.7 fold.

In the case of GTKALTEVAPLTEEAE (modifications not checked) [P10], the Ki [1] is reported as 7.3 µM.

Work on GTKALTEVIALTEEAE (modifications not checked) [P11] yielded a Ki [1] of 7 µM.

In the case of GTKWLTEWIPLTAEAEC (not fully specified) [PAW-FITC], the IC50 3′-proc (gel electrophoresis) (HIV-1 integrase (HIV-1) [6]) is reported as 10 µM, the Ki [1] is reported as 2.7 µM and the Kd [10] is reported as 0.0071 µM. The quenching of FITC-PAW fluorescence [10] was 57%, the fold increase in affinity against RT without p/t [11] was 5 fold and the fold lower Kd than unlabelled PAW [11] was 5.6 fold. The Kd (HIV-1 integrase (HIV-1) [12]) was 0.4 µM, the Δr (change of steady-state anisotropy) (HIV-1 integrase (HIV-1) [12]) was 0.06 and the fold greater Ki than PAW [2] was 3.8 fold. For the same binder, the Kd [13] was 0.033 µM and the quenching of FITC-PAW fluorescence [13] was 39%.
